The target of assay [1] is secretin receptor (SCTR) (mouse (endogenous in mouse jejunal ICC-DMP)) (UniProt Q5FWI2).
For assay [2] the target is unchanged. This is another data set of the same source.
For assay [3] the target is unchanged. The source holds these as a separate data set.

Chain of UniProt Q5FWI2 (Q5FWI2 29-447): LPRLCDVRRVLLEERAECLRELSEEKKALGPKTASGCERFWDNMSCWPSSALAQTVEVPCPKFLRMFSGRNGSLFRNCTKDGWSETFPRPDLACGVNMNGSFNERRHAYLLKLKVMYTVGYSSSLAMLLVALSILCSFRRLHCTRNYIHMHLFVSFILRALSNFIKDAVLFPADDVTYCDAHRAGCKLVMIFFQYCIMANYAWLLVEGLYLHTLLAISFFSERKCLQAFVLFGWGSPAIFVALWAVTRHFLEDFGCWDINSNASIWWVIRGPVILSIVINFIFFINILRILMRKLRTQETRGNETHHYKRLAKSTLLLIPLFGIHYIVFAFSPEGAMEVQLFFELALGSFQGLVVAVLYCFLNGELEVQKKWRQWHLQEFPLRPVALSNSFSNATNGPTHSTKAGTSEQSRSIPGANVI

B1: Secretin, human (peptide)
peptide: HSDGTFTSELSRLREGARLQRLLQGLV
B1: in assay [1], the contractions of murine jejunal muscle strips, amplitude, secretin 100 nM with TTX 1 uM was 53.3 % of control; the contractions of murine jejunal muscle strips, area under the curve, secretin 100 nM with TTX 1 uM is 46.4 % of control; the spontaneous contractions of murine jejunal muscle strips, area under the curve, secretin 100 nM, control conditions is 45.6 % of control; the spontaneous contractions of murine jejunal muscle strips, contractile amplitude, secretin 100 nM, control conditions is 61.3 % of control. Further, in assay [2], the Ca2+ transients in ICC-DMP (GCaMP6f), area of events, secretin 100 nM with TTX 1 uM is 0.57 μm·s and the Ca2+ transients in ICC-DMP (GCaMP6f), spatial spread, secretin 100 nM with TTX 1 uM turned out to be 3.1 μm. The cAMP level in ICC-DMP, FRET ratio (mTurquoise/Venus) of the CAMPER sensor, secretin 100 nM in assay [3] was 108 % of control.

For the origin of these results see publication PMC12678811.
